Experimental findings from PMC6778195 are described below.

The chains are these.
B1: unnamed (parent)
chain 1: PCVVGGQADTIYPAIANQMAHQMHEDAQTEASKRGLAKLRADAKQGIYKKNRKPQELSNICNITLQHSNDSRNGNNGGACTGKDGNNERFKIGTEWKIGEKVETTDTDAYIPPRRQHMCTSNLENLNVSWVTEDGKAIHSLLGDVQLAAKMDADEIIKRYKKHNTLTDPIQQKDQESICRAVRYSFADLGDIIRGRDLWEHGDQTKLQGHLQIIFGKIKEEIKKKHPGINGNDKYKGDEKNNPPYKQLREDWWEANRHQVWRAMQCELKNLKKSNGDCHYNSRGTPLDDYIPQRLRWMVEWAEWFCKMQSQEYDKLMKQCSQCMSKGGDCRKGDVNCTSCEQACEEYKKKIKKWEKQWNKIKDKYEELYLQAKIAFAGTSFGGGDRDYQQMVHFFKELQKVTGDTTLGDTTSPYSTAAGYIHQEGHVDECTEQTQFCKNRNGNTASGKEDDNYTFKDPPPKYANACKCD
chain 2: QTSVSPSKVILPRGGSVLVTCSTSCDQPKLLGIETPLPKKELLLPGNNRKVYELSNVQEDSQPMCYSNCPDGQSTAKTFLTVYWTPERVELAPLPSWQPVGKNLTLRCQVEGGAPRANLTVVLLRGEKELKREPAVGEPAEVTTTVLVRRDHHGANFSCRTELDLRPQGLELFENTSAPYQLQTFVLPATPPQLVSPRVLEVDTQGTVVCSLDGLFPVSEAQVHLALGDQRLNPTVTYGNDSFSAKASVSVTAEDEGTQRLTCAVILGNQSQETLQTVTIYSFPAPNVILTKPEVSEGTEVTVKCEAHPRAKVTLNGVPAQPLGPRAQLLLKATPEDNGRSFSCSATLEVAGQLIHKNQTRELRVLYGPRLDERDCPGNWTWPENSQQTPMCQAWGNPLPELKCLKDGTFPLPIGESVTVTRDLEGTYLCRARSTQGEVTRKVTVNVLSPRYE

In this test the parent is B1. In words: SPR. The conditions noted are these: with partner chain of the complex shown; top curve of the dilution series (250 nM), read at end of injection (~250 s); parent: 260; read off a plot.
Turning to chain 1 G383A, the response is 270 RU.

chain 1 Q389A: the response turned out to be 280 RU.

Regarding chain 1 E366A, the response was 190 RU.

In the case of chain 1 L370D, the response turned out to be 70 RU. To chain 1 G382A G383A G384A belongs 260 RU. The figure for chain 1 L407D is 220 RU. The figure for chain 1 N241A is 280 RU; for chain 1 N242A it is 270 RU; for chain 1 G382A G383A it is 280 RU.
